Legend:
Assay type in all cases: binding
[1] = molecular target: T1, human VEGF receptor-2 (KDR) (Homo sapiens, UniProt P35968); assay: GST pull-down association assay, VEGFR2; settings: HEK 293 lysate expressing His-tagged protein; Western blot
T1 construct: the intracellular domain of each receptor tyrosine kinase was generated as an in-frame GST fusion; made in house; host or cells: Sf9 insect cells (baculovirus)

[2] = molecular target: T2, human VEGF receptor-2 (KDR) (Homo sapiens, UniProt P35968, Y1175F); assay: GST pull-down association assay, VEGFR2; settings: GST fusion Y1175F versus wild-type
T2 construct: the intracellular domain of each receptor tyrosine kinase was generated as an in-frame GST fusion; made in house; host or cells: Sf9 insect cells (baculovirus)

[3] = molecular target: T3, human VEGFR2 intracellular domain (Homo sapiens, UniProt P35968); assay: Yeast two-hybrid interaction with intracellular domain of VEGFR2; settings: growth on histidine-deficient and uracil-deficient media
T3 construct: expressed in transfected cells; host or cells: yeast strain MaV203 (pDBLeu-hVEGFR2)
From the text: (§1) All two-hybrid plasmid constructs used the pDBLeu and pPC86 yeast expression vectors as a part of the ProQuest Two-Hybrid System (Life Technologies, Rockville, Md.). A cDNA encoding the intracellular domain of human VEGFR2 was generated by PCR from a human VEGFR2/pJFE14 construct, obtained from Regeneron Pharmaceuticals (Tarrytown, N.Y.), and subcloned into the yeast bait vector downstream of the GAL4 DNA-binding domain. A human umbilical vein endothelial cell (HUVEC) cDNA library (in pPC86) was co-transformed with pDBLeu-hVEGFR2 into the MaV203 strain of yeast. Proteins that interacted with the intracellular domain of human VEGFR2 were selected and tested for specificity according to the manufacturer's instructions.
(§2) In an ongoing effort to understand mechanisms by which the biological activity of VEGF is mediated through the VEGF receptor-2 (KDR/Flk-1), we used the entire cytoplasmic domain of KDR as bait to screen human umbilical vein endothelial cell (HUVEC) and human fetal brain cDNA libraries in the yeast two-hybrid system. The intracellular domain of human VEGFR2 (790-1357 SEQ ID NO 8) was constructed in the bait plasmid (pDBLeu) and the cDNA libraries were constructed in the prey plasmid (pPC86). Following transformation of yeast, positive clones were selected by growth on histidine-deficient media and for the expression of β-galactosidase activity (X-gal selection). […]

[4] = molecular target: T4, human VEGFR2 intracellular domain (Homo sapiens, UniProt P35968, K868R); assay: as above; settings: ATP binding site mutated (K870R)
T4 construct: expressed in transfected cells; host or cells: yeast strain MaV203 (pDBLeu-hVEGFR2)
From the text: as §1, §2

T3 sequence (P35968 790-1356): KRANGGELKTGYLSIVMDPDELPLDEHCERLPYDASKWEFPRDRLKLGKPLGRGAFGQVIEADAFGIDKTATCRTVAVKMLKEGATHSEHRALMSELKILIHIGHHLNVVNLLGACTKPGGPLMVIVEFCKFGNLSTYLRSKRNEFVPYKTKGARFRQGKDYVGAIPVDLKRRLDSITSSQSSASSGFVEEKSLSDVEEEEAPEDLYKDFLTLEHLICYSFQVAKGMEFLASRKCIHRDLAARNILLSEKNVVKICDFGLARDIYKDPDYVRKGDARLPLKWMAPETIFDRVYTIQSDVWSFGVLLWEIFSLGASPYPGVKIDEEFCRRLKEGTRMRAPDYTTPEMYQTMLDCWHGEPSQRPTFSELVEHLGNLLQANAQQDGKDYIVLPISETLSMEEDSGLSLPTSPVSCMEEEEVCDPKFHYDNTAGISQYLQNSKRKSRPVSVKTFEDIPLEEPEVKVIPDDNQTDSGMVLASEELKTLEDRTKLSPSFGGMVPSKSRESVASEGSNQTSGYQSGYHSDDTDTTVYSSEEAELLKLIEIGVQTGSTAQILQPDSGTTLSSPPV
T1 sequence (P35968 790-1356): as above
T4 sequence (P35968 790-1356 K868R): as the sequence (P35968 790-1356) above, with K79R counted along it
T2 sequence (P35968 790-1356 Y1175F): as the sequence (P35968 790-1356) above, with Y386F counted along it

B1: KAPh: novel human KDR Associated Phosphatase protein, full-length sequence SEQ ID NOS 1 and 2 (protein, listed as Homo sapiens)
chain: MKPRKAEPHSFREKVFRKKPPVCAVCKVTIDGTGVSCRVCKVATHRKCEAKVTSACQALPPVELRRNTAPVRRIEHLGSTKSLNHSKQRSTLPRSFSLDPLMERRWDLDLTYVTERILAAAFPARPDEQRHRGHLRELAHVLQSKHRDKYLLFNLSEKRHDLTRLNPKVQDFGWPELHAPPLDKLCSICKAMETWLSADPQHVVVLYCKGNKGKLGVIVSAYMHYSKISAGADQALATLTMRKFCEDKVATELQPSQRRYISYFSGLLSGSIRMNSSPLFLHYVLIPMLPAFEPGTGFQPFLKIYQSMQLVYTSGVYHIAGPGPQQLCISLEPALLLKGDVMVTCYHKGGRGTDRTLVFRVQFHTCTIHGPQLTFPKDQLDEAWTDERFPFQASVEFVFSSSPEKIKGSTPRNDPSVSVDYNTTEPAVRWDSYENFNQHHEDSVDGSLTHTRGPLDGSPYAQVQRPPRQTPPAPSPEPPPPPMLSVSSDSGHSSTLTTEPAAESPGRPPPTAAERQELDRLLGGCGVASGGRGAGRETAILDDEEQPTVGGGPHLGVYPGHRPGLSRHCSCRQGYREPCGVPNGGYYRPEGTLERRRLAYGGYEGSPQGYAEASMEKRRLCRSLSEGLYPYPPEMGKPATGDFGYRAPGYREVVILEDPGLPALYPCPACEEKLALPTAALYGLRLEREAGEGWASEAGKPLLHPVRPGHPLPLLLPACGHHHAPMPDYSCLKPPKAGEEGHEGCSYTMCPEGRYGHPGYPALVTYSYGGAVPSYCPAYGRVPHSCGSPGEGRGYPSPGAHSPRAGSISPGSPPYPQSRKLSYEIPTEEGGDRYPLPGHLASAGPLASAESLEPVSWREGPSGHSTLPRSPRDAPCSASSELSGPSTPLHTSSPVQGKESTRRQDTRSPTSAPTQRLSPGEALPPVSQAGTGKAPELPSGSGPEPLAPSPVSPTFPPSSPSDWPQERSPGGHSDGASPRSPVPTTLPGLRHAPWQGPRGPPDSPDGSPLTPVPSQMPWLVASPEPPQSSPTPAFPLAASYDTNGLSQPPLPEKRHLPGPGQQPGPWGPEQASSPARGISHHVTFAPLLSDNVPQTPEPPTQESQSNVKFVQDTSKFWYKPHLSRDQAIALLKDKDPGAFLIRDSHSFQGAYGLALKVATPPPSAQPWKGDPVEQLVRHFLIETGPKGVKIKGCPSEPYFGSLSALVSQHSISPISLPCCLRILSKDPLEETPEAPVPTNMSTAADLLRQGAACSVLYLTSVETESLTGPQAVARASSAALSCSPRPTPAVVHFKVSAQGITLTDNQRKLFFRRHYPVNSITFSSTDPQDRRWTNPDGTTSKIFGFVAKKPGSPWENVCHLFAELDPDQPAGAIVTFITKVLLGQRK
interaction with GST VEGFR2, wild-type versus catalytically inactive K870R [1]: interacted in an autophosphorylation-dependent manner | interaction with VEGFR2 Y1175F mutant [2]: nearly abolished | yeast two-hybrid interaction with wild-type KDR [3]: robust protein-protein interaction | yeast two-hybrid interaction with KDR K870R mutant [4]: essentially no significant interaction

— patent US20030158083A1, “Method of effecting angiogenesis by modulating the function of a novel endothelia phosphatase” (The Procter & Gamble Company, priority 2002, published 2003)
